Numbering of substitutions follows the chain as printed. Numbers in names are those of the source. Read-outs that look alike come from different tables or passages of the source.
Experiments:
[1] = molecular target: T1, human C-KIT, full length, on cells (human, UniProt P10721 26-976); assay: cell-based or functional assay
[2] = molecular target: T2, human C-KIT-Fc (human, UniProt P10721 26-524); assay: HTRF epitope competition in solution; competitor IgG1-3M titrated against terbium-labelled h37M IgG1 on biotinylated human C-KIT-Fc
T2 construct: also called biotinylated human C-KIT-Fc; not shown: Fc part not described

[3] = molecular target: T3, cynomolgus monkey C-KIT, full length, on CHO-K1 cells (cynomolgus monkey); assay: cell-based or functional assay
[4] = molecular target: T1, human C-KIT, full length, on cells; assay: cell-based or functional assay; remark: listed apart in the source
[5] = molecular target: T4, cynomolgus monkey C-KIT-Fc (cynomolgus monkey); assay: HTRF epitope competition in solution; competitor IgG1-3M titrated against terbium-labelled h37M IgG1 on cyno C-KIT-Fc
T4 construct: also called cyno C-KIT-Fc

[6] = molecular target: T1, human C-KIT, full length, on cells; assay: flow cytometry, C-KIT-transfected CHO-K1 cells, IgG1 format
[7] = molecular target: T2, human C-KIT-Fc; assay: HTRF competition on human C-KIT-Fc against terbium-labelled h37M IgG1
[8] = molecular target: T2, human C-KIT-Fc; assay: direct titration ELISA on coated C-KIT-Fc, IgG1 format
[9] = molecular target: T1, human C-KIT, full length, on cells; assay: flow cytometry, C-KIT-transfected CHO-K1 cells, IgG1 format; remark: listed apart in the source
[10] = molecular target: T4, cynomolgus monkey C-KIT-Fc; assay: HTRF competition vs Tb-h37M IgG1
[11] = molecular target: T2, human C-KIT-Fc; assay: HTRF competition vs Tb-h37M IgG1
[12] = molecular target: T3, cynomolgus monkey C-KIT, full length, …; assay: flow cytometry, C-KIT-transfected CHO-K1 cells, IgG1 format
[13] = molecular target: T1, human C-KIT, full length, on cells; assay: as above; remark: listed apart in the source
[14] = molecular target: T2, human C-KIT-Fc; assay: HTRF competition on human C-KIT-Fc against terbium-labelled h37M IgG1; remark: listed apart in the source
[15] = molecular target: T4, cynomolgus monkey C-KIT-Fc; assay: direct titration ELISA on coated C-KIT-Fc, IgG1 format
[16] = molecular target: T2, human C-KIT-Fc; assay: HTRF epitope competition in solution; unlabelled h37M IgG1-3M titrated against terbium-labelled h37M IgG1 on biotinylated human C-KIT-Fc

B1: MH1, IgG1-3M format (antibody, V domains shown)
VH: QVQLVQSGAEVKKPGASVKVSCKASGYTFTDYYMNWVRQAPGQGLEWMGRIYPGSGNTYYAQKFQGRVTMTRDTSTSTVYMELSSLRSEDTAVYYCARGVYYYDYWGQGTLVTVSS
VL: DIQMTQSPSSLSASVGDRVTITCRASQGIRTNLAWFQQKPGKAPKSLIYAASSLQSGVPSRFSGSGSGTDFTLTISSLQPEDFATYYCQQYNSYPRTFGGGTKVEIK
notes: human IgG1 with L234A/L235A/G237A; also called C-KIT-MH1
TF-1 proliferation, fold less potent than h37M [1]: 26.5 fold | IC50 (read off the curve) [2]: ~0.01 µg/mL | Cyno C-KIT CHO FabZAP IC50 (pM) [3]: 14 pM | Human C-KIT CHO FabZAP IC50 (pM) [4]: 8.7 pM | TF-1 FabZAP IC50 (pM) [4]: 51.1 pM | TF-1 proliferation IC50 [4]: 2.86 nM | IC50 (read off the curve) [5]: ~0.02 µg/mL

B2: MH5-DI, IgG1-3M format (antibody, V domains shown)
VH: B1 VH
VL: B1 VL with N92A, S93N
TF-1 proliferation, fold less potent than h37M [1]: 244 fold | Cyno C-KIT CHO FabZAP IC50 (pM) [3]: 13.5 pM | Human C-KIT CHO FabZAP IC50 (pM) [4]: 12.6 pM | TF-1 FabZAP IC50 (pM) [4]: 53.7 pM | TF-1 proliferation IC50 [4]: 26.3 nM

B3: MH2 (antibody, IgG1, V domains shown)
VH: B1 VH
VL: B1 VL with A50S, N92A
notes: IgG1
binding result [6]: binds | binding result [7]: binds

B4: MH3 (antibody, IgG1, V domains shown)
VH: B1 VH
VL: B1 VL with A50S, S93A
notes: IgG1
binding result [6]: binds | binding result [7]: binds

B5: MH5, IgG1-3M format (antibody, V domains shown)
VH: B1 VH
VL: B1 VL with A50S, N92A, S93N
notes: human IgG1 with L234A/L235A/G237A
IC50 (read off the curve) [2]: ~0.03 µg/mL | IC50 (read off the curve) [5]: ~0.02 µg/mL

B6: MH5.4 (antibody, IgG1, V domains shown)
VH: B1 VH with Y32H, S55T, Y101W, Y103F, Y105S
VL: B1 VL with N92A, S93N
notes: IgG1
binding result [8]: binds

B7: MH5.6 (antibody, IgG1, V domains shown)
VH: B1 VH with Y32H, S55T, Y101W, Y103F, Y105E
VL: B1 VL with N92A, S93N
notes: IgG1
binding result [8]: binds

B8: MH5.10 (antibody, IgG1, V domains shown)
VH: B1 VH with Y32H, S55A, Y101W, Y103F, Y105E
VL: B1 VL with N92A, S93N
notes: IgG1
binding result [8]: binds

B9: MH5.15 (antibody, IgG1, V domains shown)
VH: B1 VH with Y32F, S55T, Y101W, Y103F, Y105S
VL: B1 VL with N92A, S93N
notes: IgG1
binding result [8]: binds

B10: MH5.34 (antibody, IgG1, V domains shown)
VH: B1 VH with D31N, G54A, Y101W, Y103F, Y105S
VL: B1 VL with N92A, S93N
notes: IgG1; also called C-KIT-MH5.34
EC50 (read off the curve) [9]: ~0.2 µg/mL | IC50 [10]: 0.532 µg/mL | IC50 [11]: 0.839 µg/mL | EC50 (read off the curve) [12]: ~0.2 µg/mL

B11: MH5.35 (antibody, IgG1, V domains shown)
VH: B1 VH with D31N, G54A, Y101W, Y103F, Y105T
VL: B1 VL with N92A, S93N
notes: IgG1; also called C-KIT-MH5.35
EC50 (read off the curve) [9]: ~0.1 µg/mL | IC50 [10]: 0.785 µg/mL | IC50 [11]: 2.05 µg/mL | EC50 (read off the curve) [12]: ~0.2 µg/mL

B12: MH7 (antibody, IgG1, V domains shown)
VH: B1 VH
VL: B1 VL with A50S, R96H
notes: IgG1
binding result [13]: binds | binding result [14]: binds

B13: MH8 (antibody, IgG1, V domains shown)
VH: B1 VH
VL: B1 VL with A50S, N92S
notes: IgG1
binding result [7]: binds | binding result [13]: binds

B14: MH10 (antibody, IgG1, V domains shown)
VH: B1 VH
VL: B1 VL with A50S, N92T
notes: IgG1
binding result [7]: binds | binding result [13]: binds

B15: MH12 (antibody, IgG1, V domains shown)
VH: B1 VH
VL: B1 VL with I29V
notes: IgG1
binding result [7]: binds | binding result [13]: binds

B16: MH13 (antibody, IgG1, V domains shown)
VH: B1 VH
VL: B1 VL with I29V, S93A
notes: IgG1
binding result [7]: binds | binding result [13]: binds

B17: chimeric anti-C-KIT antibody m37M, human IgG1 (antibody, V domains shown)
VH: QVQLKQSGAELVRPGASVKLSCKASGYTFTDYYINWVKQRPGQGLEWIARIYPGSGNTYYNEKFKGKATLTAEKSSSTAYMQLSSLTSEDSAVYFCARGVYYFDYWGQGTTLTVSS
VL: DIVMTQSQKFMSTSVGDRVSVTCKASQNVRTNVAWYQQKPGQSPKALIYSASYRYSGVPDRFTGSGSGTDFTLTISNVQSEDLADYFCQQYNSYPRTFGGGTKLEIKR
EC50 (read off the curve) [15]: ~0.1 µg/mL | EC50 (read off the curve) [9]: ~0.2 µg/mL | EC50 (read off the curve) [12]: ~0.2 µg/mL

B18: h37M-IgG1-3M (antibody, V domains shown)
VH: QVQLVQSGAEVKKPGASVKLSCKASGYTFTDYYINWVRQAPGKGLEWIARIYPGSGNTYYNEKFKGRATLTADKSTSTAYMQLSSLRSEDTAVYFCARGVYYFDYWGQGTTVTVSS
VL: DIVMTQSPSSLSASVGDRVTITCKASQNVRTNVAWYQQKPGKAPKALIYSASYRYSGVPDRFTGSGSGTDFTLTISSLQPEDFADYFCQQYNSYPRTFGGGTKVEIK
notes: human IgG1 with L234A/L235A/G237A; also called C-KIT-h37M
IC50 (read off the curve) [16]: ~0.01 µg/mL
